Measured values from patent US20150152192A1 (SAMSUNG ELECTRONICS, published 2015).

Assays:
[1] = molecular target: T1, human c-Met/Fc fusion protein (R&D Systems) (human, UniProt P08581 25-932); experiment: SPR, Biacore T100, bispecific antibody captured by human Fab binder on CM5 chip, c-Met-Fc flowed
T1 construct: also called c-Met-Fc (#358-MT/CF, R&D Systems); human c-Met/Fc protein; not shown: Fc part
Experimental: For this, a human Fab binder (GE Healthcare) was fixed on the surface of CM5 chip (#BR-1005-30, GE) according to manufacturer's manual. […] Hereto, 10 mM Glycine-HCl (pH 1.5) solution was added, to regenerate the surface. To measure the affinity, the above obtained data were fitted using BIAevaluation software (GE Healthcare, Biacore T100 evaluation software).

[2] = molecular target: T2, human Ang2 polypeptide (R&D systems; Accession #O15123; SEQ ID NO: 172) (human, UniProt O15123 19-496); experiment: ELISA, human Ang2 coated, anti-human Fc-HRP; 50% binding concentration
T2 construct: Bought protein; also called hAng2; human Ang2 protein
T2 sequence: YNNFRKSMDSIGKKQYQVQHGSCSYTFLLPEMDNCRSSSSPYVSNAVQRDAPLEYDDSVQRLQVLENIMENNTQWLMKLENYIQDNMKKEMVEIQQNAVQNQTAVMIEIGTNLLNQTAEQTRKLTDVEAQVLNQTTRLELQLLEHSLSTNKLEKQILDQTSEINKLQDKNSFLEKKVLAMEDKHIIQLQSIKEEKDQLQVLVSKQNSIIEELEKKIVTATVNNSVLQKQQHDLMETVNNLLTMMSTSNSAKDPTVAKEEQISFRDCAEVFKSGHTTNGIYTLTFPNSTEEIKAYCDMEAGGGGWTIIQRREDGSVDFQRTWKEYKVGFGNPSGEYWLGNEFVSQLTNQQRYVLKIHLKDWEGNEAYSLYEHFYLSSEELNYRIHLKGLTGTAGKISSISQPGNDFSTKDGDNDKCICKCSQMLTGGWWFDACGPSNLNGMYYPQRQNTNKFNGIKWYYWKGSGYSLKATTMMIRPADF

T1 sequence (P08581 25-932 limits assumed): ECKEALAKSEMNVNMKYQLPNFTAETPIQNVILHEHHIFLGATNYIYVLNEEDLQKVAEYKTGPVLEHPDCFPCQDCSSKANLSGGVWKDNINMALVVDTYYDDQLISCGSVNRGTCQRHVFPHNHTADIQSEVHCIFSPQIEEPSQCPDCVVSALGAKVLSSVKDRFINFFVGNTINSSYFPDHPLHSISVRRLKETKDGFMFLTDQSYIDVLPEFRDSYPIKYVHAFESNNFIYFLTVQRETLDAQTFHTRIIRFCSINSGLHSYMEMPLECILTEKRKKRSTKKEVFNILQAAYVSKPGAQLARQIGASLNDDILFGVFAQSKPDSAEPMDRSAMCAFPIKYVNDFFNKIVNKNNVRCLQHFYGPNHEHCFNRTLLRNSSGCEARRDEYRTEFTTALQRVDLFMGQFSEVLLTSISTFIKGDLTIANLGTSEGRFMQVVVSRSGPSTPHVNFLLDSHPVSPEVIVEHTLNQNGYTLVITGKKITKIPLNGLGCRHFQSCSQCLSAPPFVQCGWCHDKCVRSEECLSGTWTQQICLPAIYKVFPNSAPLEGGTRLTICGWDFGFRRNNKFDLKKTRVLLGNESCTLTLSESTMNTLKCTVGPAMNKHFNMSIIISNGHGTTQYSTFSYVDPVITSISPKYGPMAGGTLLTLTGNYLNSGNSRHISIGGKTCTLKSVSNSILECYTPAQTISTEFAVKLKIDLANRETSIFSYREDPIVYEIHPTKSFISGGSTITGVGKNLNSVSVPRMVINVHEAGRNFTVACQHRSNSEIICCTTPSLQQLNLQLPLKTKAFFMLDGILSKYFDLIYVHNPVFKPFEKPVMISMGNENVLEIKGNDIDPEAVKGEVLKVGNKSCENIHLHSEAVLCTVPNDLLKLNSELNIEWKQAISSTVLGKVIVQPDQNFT

B1: anti-c-Met/anti-Ang2 bispecific antibody (anti-Ang2 4-H10 scFv fused to the C-terminus of anti-c-Met antibody L3-1Y-IgG2) (bispecific antibody)
heavy: EVQLVESGGGLVQPGGSLRLSCAASGFTFTDYYMSWVRQAPGKGLEWLGFIRNKANGYTTEYSASVKGRFTISRDNSKNTLYLQMNSLRAEDTAVYYCARDNWFAYWGQGTLVTVSSASTKGPSVFPLAPCSRSTSESTAALGCLVKDYFPEPVTVSWNSGALTSGVHTFPAVLQSSGLYSLSSVVTVPSSNFGTQTYTCNVDHKPSNTKVDKTVERKCCVECPPCPAPPVAGPSVFLFPPKPKDTLMISRTPEVTCVVVDVSHEDPEVQFNWYVDGVEVHNAKTKPREEQFNSTFRVVSVLTVVHQDWLNGKEYKCKVSNKGLPAPIEKTISKTKGQPREPQVYTLPPSREEMTKNQVSLTCLVKGFYPSDIAVEWESNGQPENNYKTTPPMLDSDGSFFLYSKLTVDKSRWQQGNVFSCSVMHEALHNHYTQKSLSLSPGGGGGSGGGGSEVQLLESGGGLVQPGGSLRLSCAASGFTFSSYDMSWVRLAPGKGLEWVSLISPDSSSIYYADSVKGRFTISRDNSKNTLYLQMNSLRAEDTAVYYCAKDLISFWRGGFDYWGQGTLVTVSSGGGGSGGGGSGSGGSQSVLTQPPSASGTPGQRVTISCSGSSSNIGSNYVNWYQQLPGTAPKLLIYSDSHRPSGVPDRFSGSKSGTSASLAISGLRSEDEADYYCGAWDDSLSGYVFGGGTKLTVLGQAGQHHHHHHGAYPYDVPDYAS
light: DIQMTQSPSSLSASVGDRVTITCKSSQSLLASGNQNNYLAWYQQKPGKAPKMLIIWASTRVSGVPSRFSGSGSGTDFTLTISSLQPEDFATYYCQQSYSRPYTFGQGTKVEIKRTVAAPSVFIFPPSDEQLKSGTASVVCLLNNFYPREAKVQWKVDNALQSGNSQESVTEQDSKDSTYSLSSTLTLSKADYEKHKVYACEVTHQGLSSPVTKSFNRGEC
notes: also called BS ab; BS Ab
Kd [1]: 0.09 nM
koff [1]: 8.2e-05 s⁻¹
kon [1]: 850000 M⁻¹ s⁻¹
Kd [2]: 31 nM
